Data reported in patent US20190071480A1 (Biogen, published 2019).
Each block holds one binder with its values, some of them ahead of it.

Assays:
[1] = target: T1, extracellular domain of activin receptor type IIB (ActRIIBecd), biotinylated (Homo sapiens (Human), UniProt Q13705 27-117, amino-biotinylated with amine-PEG3-Biotin); experiment: BIAcore SPR, biotinylated ActRIIBecd on chip; SD ±16.71 nM
T1 construct: immobilised on a streptavidin-coated sensor chip; also called biotinylated ActRIIBecd; extracellular domain of ActRIIB
T1 sequence: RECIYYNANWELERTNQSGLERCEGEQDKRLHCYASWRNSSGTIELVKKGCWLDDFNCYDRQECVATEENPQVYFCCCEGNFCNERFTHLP
Procedure: (§1) Biosensor experiments. In one embodiment, experiments were performed on a BIAcore™ T100/T200 instrument (Pharmacia Biosensor AB) in the multichannel mode (serial flow path involving flow cells 1+2+3+4). Flow rate was 10 μl/min; temperature was 25° C.; and data were recorded at 2.5 points/s. All four segments of a sensor chip CMS were coated with streptavidin (Sigma) to a density of 2000 pg/mm² (2000 resonance units) by the aminocoupling procedure. ActRIIBecd (10 mg) and amine-PEG3-Biotin (10 mg, Pierce, Rockford, Ill.) were dissolved in 200 μl H₂O and 10 mg NaCNBH₃ was added to prepare biotinylated ActRIIBecd. The reaction mixture was heated at 70° C. for 24 h, after that a further 10 mg NaCNBH₃ was added and the reaction was heated at 70° C. for another 24 h. After cooling to room temperature, the mixture was desalted with the spin column (3,000 molecular weight cut off (MWCO)). […] Sensograms were recorded during flow of the analyte (the ActRIIBecd-associated polypeptides (i.e., domains) as previously described) first through flow cell 1 (control) then through flow cell 2 (biotinylated ActRIIBecd). […] The sensograms obtained at 1.11, 3.33, 10, 30, and 90 nM analyte were evaluated for equilibrium binding, association rate, and dissociation rate by using the programs supplied with the instrument (BIA evaluation 2.1; Software Handbook. 1995; Pharmacia Biosensor AB).

[2] = target: T1, extracellular domain of activin …; experiment: BIAcore SPR, biotinylated ActRIIBecd on chip; SD ±15.39 nM
Procedure: as §1

[3] = target: T1, extracellular domain of activin …; experiment: BIAcore SPR as Example 5 (method not restated); SD ±2.12 nM
Procedure: as §1

[4] = target: T1, extracellular domain of activin …; experiment: Mean KD column of Table 5; method not restated (BIAcore as Example 5); species also listed in Table 4
Procedure, shortened: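 SPR at 25° C. and 10 μl/min: analyte at 1.11-90 nM (five concentrations, glycine buffer pH 4.5) passed over a control cell, then over streptavidin-captured biotinylated ActRIIBecd at 50-250 RU. Kinetic and equilibrium constants came from control-subtracted sensorgrams.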

[5] = target: T1, extracellular domain of activin …; experiment: BIAcore SPR, biotinylated ActRIIBecd on chip; SD ±11.20 nM
Procedure: as §1

[6] = target: T1, extracellular domain of activin …; experiment: BIAcore SPR, biotinylated ActRIIBecd on chip; SD ±12.04 nM
Procedure: as §1

[7] = target: T1, extracellular domain of activin …; experiment: BIAcore SPR, biotinylated ActRIIBecd on chip; SD ±11.61 nM
Procedure: as §1

[8] = target: T1, extracellular domain of activin …; experiment: BIAcore SPR as Example 5 (method not restated); SD ±2.01 nM
Procedure: as §1

[9] = target: T1, extracellular domain of activin …; experiment: BIAcore SPR, biotinylated ActRIIBecd on chip; SD ±13.03 nM
Procedure: as §1

[10] = target: T1, extracellular domain of activin …; experiment: BIAcore SPR, biotinylated ActRIIBecd on chip; SD ±12.07 nM
Procedure: as §1

[11] = target: T1, extracellular domain of activin …; experiment: BIAcore SPR, biotinylated ActRIIBecd on chip; SD ±13.21 nM
Procedure: as §1

[12] = target: T1, extracellular domain of activin …; experiment: BIAcore SPR, biotinylated ActRIIBecd on chip; SD ±14.25 nM
Procedure: as §1

[13] = target: T1, extracellular domain of activin …; experiment: BIAcore SPR, biotinylated ActRIIBecd on chip; SD ±13.24 nM
Procedure: as §1

[14] = target: T1, extracellular domain of activin …; experiment: BIAcore SPR, biotinylated ActRIIBecd on chip; SD ±14.78 nM
Procedure: as §1

[15] = target: T1, extracellular domain of activin …; experiment: BIAcore SPR, biotinylated ActRIIBecd on chip; SD ±12.01 nM
Procedure: as §1

[16] = target: T1, extracellular domain of activin …; experiment: BIAcore SPR, biotinylated ActRIIBecd on chip; SD ±10.27 nM
Procedure: as §1

[17] = target: T1, extracellular domain of activin …; experiment: BIAcore SPR, biotinylated ActRIIBecd on chip; SD ±13.97 nM
Procedure: as §1

[18] = target: T1, extracellular domain of activin …; experiment: BIAcore SPR, biotinylated ActRIIBecd on chip; SD ±12.10 nM
Procedure: as §1

Binder: AQAKHKGYKRLKSSCKRHPLY [Clone No. 9 domain (ActRIIBecd-associated polypeptide)]
Kd [1]: 52.4 nM

Binder: GQAKRKGYKRLKSSCKRHPLY [Clone No. 8 domain (ActRIIBecd-associated polypeptide)]
Kd [2]: 45.1 nM

B2: Recombinant polypeptide of clones 10 + 15 + 21 (designed binder)
chain: AQAKHKQRKRLKSSCKRHPLYVDFSDVGWNDWIVAPPGYHAFYCHGECPFPLADHLNSTNHAIVQTLVNSVNSKIPKACCVPTELSAISMLYLDENEKVVLKNYQDMVVEGCGCR
Kd [5]: 17.2 nM

B3: Recombinant polypeptide of clones 8 + 15 + 19 (designed binder)
chain: GQAKRKGYKRLKSSCKRHPLYVDFSDVGWNDWIVAPPGYHAFYCHGECPFPLADHLNSTNHAIVQTLVNSVNSKDPKACCVPTELSAPSPLYLDENEKPVLKNYQDMVVHGCGCR
Kd [6]: 16.5 nM

B4: Recombinant polypeptide of clones 10 + 14 + 21 (designed binder)
chain: AQAKHKQRKRLKSSCKRHPLYVDFKDVGWNDHAVAPPGYHAFYCHGECPFPLADHLNSDNHAIVQTKVNSVNSKIPKACCVPTELSAISMLYLDENEKVVLKNYQDMVVEGCGCR
Kd [7]: 18 nM

B10: Recombinant polypeptide of clones 8 + 14 + 19 (designed binder)
chain: GQAKRKGYKRLKSSCKRHPLYVDFKDVGWNDHAVAPPGYHAFYCHGECPFPLADHLNSDNHAIVQTKVNSVNSKDPKACCVPTELSAPSPLYLDENEKPVLKNYQDMVVHGCGCR
Kd [13]: 15.6 nM

B15: Recombinant polypeptide of clones 8 + 21 + 15 (designed binder)
chain: GQAKRKGYKRLKSSCKRHPLYNSKIPKACCVPTELSAISMLYLDENEKVVLKNYQDMVVEGCGCRVDFSDVGWNDWIVAPPGYHAFYCHGECPFPLADHLNSTNHAIVQTLVNSV
Kd [18]: 17.1 nM

Further lines, results first:

Kd [3]: 42.3 nM
Kd [4]: 42.3 nM
B1: SEQ ID NO: 188, cysteine pairs C15-C44^a (designed binder)
chain: AQAKHKQRKRLKSSCKRHPLYVDFSDVGWNDWIVAPPGYHAFYCHGECPFPLADHLNSTNHAIVQTLVNSV
modifications: disulfides C15-C44 (intra)

Kd [8]: 46 nM
Kd [4]: 46 nM
B5: SEQ ID NO: 194, cysteine pairs C23-C65^a (designed binder)
chain: VDFSDVGWNDWIVAPPGYHAFYCHGECPFPLADHLNSTNHAIVQTLVNSVAQAKHKQRKRLKSSCKRHPLY
modifications: disulfides C23-C65 (intra)

Kd [9]: 32.1 nM
B6: Recombinant polypeptide of clones 19 + 14 (designed binder)
chain: NSKDPKACCVPTELSAPSPLYLDENEKPVLKNYQDMVVHGCGCRVDFKDVGWNDHAVAPPGYHAFYCHGECPFPLADHLNSDNHAIVQTKVNSV

Kd [10]: 31 nM
B7: Recombinant polypeptide of clones 14 + 19 (designed binder)
chain: VDFKDVGWNDHAVAPPGYHAFYCHGECPFPLADHLNSDNHAIVQTKVNSVNSKDPKACCVPTELSAPSPLYLDENEKPVLKNYQDMVVHGCGCR

Kd [11]: 15.1 nM
B8: Recombinant polypeptide of clones 15 + 10 + 21 (designed binder)
chain: VDFSDVGWNDWIVAPPGYHAFYCHGECPFPLADHLNSTNHAIVQTLVNSVAQAKHKQRKRLKSSCKRHPLYNSKIPKACCVPTELSAISMLYLDENEKVVLKNYQDMVVEGCGCR

Kd [12]: 16.7 nM
B9: Recombinant polypeptide of clones 21 + 10 + 15 (designed binder)
chain: NSKIPKACCVPTELSAISMLYLDENEKVVLKNYQDMVVEGCGCRAQAKHKQRKRLKSSCKRHPLYVDFSDVGWNDWIVAPPGYHAFYCHGECPFPLADHLNSTNHAIVQTLVNSV

Kd [14]: 17.6 nM
B11: Recombinant polypeptide of clones 14 + 8 + 19 (designed binder)
chain: VDFKDVGWNDHAVAPPGYHAFYCHGECPFPLADHLNSDNHAIVQTKVNSVGQAKRKGYKRLKSSCKRHPLYNSKDPKACCVPTELSAPSPLYLDENEKPVLKNYQDMVVHGCGCR

Kd [15]: 16 nM
B12: Recombinant polypeptide of clones 19 + 8 + 14 (designed binder)
chain: NSKDPKACCVPTELSAPSPLYLDENEKPVLKNYQDMVVHGCGCRGQAKRKGYKRLKSSCKRHPLYVDFKDVGWNDHAVAPPGYHAFYCHGECPFPLADHLNSDNHAIVQTKVNSV

Kd [16]: 14.1 nM
B13: Recombinant polypeptide of clones 19 + 14 + 8 (designed binder)
chain: NSKDPKACCVPTELSAPSPLYLDENEKPVLKNYQDMVVHGCGCRVDFKDVGWNDHAVAPPGYHAFYCHGECPFPLADHLNSDNHAIVQTKVNSVGQAKRKGYKRLKSSCKRHPLY

Kd [17]: 17 nM
B14: Recombinant polypeptide of clones 10 + 19 + 14 (designed binder)
chain: AQAKHKQRKRLKSSCKRHPLYNSKDPKACCVPTELSAPSPLYLDENEKPVLKNYQDMVVHGCGCRVDFKDVGWNDHAVAPPGYHAFYCHGECPFPLADHLNSDNHAIVQTKVNSV
